Data set [1] addresses T1, GRF receptor of rat adenopituitary (rat, UniProt Q02644-2).
T1 sequence: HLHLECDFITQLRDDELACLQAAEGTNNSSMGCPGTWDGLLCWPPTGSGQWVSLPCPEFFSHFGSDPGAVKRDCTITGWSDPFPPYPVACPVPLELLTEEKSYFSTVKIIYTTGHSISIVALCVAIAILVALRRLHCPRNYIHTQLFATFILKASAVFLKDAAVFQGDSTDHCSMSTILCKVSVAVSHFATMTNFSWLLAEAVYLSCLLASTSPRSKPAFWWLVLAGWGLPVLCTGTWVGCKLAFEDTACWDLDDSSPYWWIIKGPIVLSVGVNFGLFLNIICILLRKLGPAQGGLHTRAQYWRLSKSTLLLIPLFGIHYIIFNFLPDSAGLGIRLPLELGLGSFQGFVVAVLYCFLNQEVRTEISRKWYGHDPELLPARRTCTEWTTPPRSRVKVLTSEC

Data set [2] has as its target T1, GRF receptor of rat adenopituitary. The experiment in a line: displacement of 125I-Tyr10 hGRF(1-44)NH2 from rat anterior pituitary homogenate. Background: Displacement assays read how much labelled ligand stays bound in the presence of the test substance.
The target in data set [3] is T2, GRF receptors ([^125 I-Tyr^10 ]hGRF(1-44)NH2 binding sites in rat adenopituitary) (Rattus norvegicus, UniProt Q02644).
T2 construct: from tissue; host or cells: rat anterior pituitary homogenate
T2 sequence (Q02644 23-423 isoform Q02644-2 limits assumed): T1 sequence
The data set is described as follows: Competitive binding assay with [^125 I-Tyr^10 ]hGRF(1-44)NH2 on anterior pituitary homogenates. In a few lines:
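Rat anterior pituitary homogenates (70 to 75 μg protein) in 50 mM Tris-HCl pH 7.4 with 5 mM EDTA, 5 mM MgCl2, 0.42% BSA were competed with 35-50 pM radioligand against analogues at 0-1000 nM. Non-specific binding defined with 2.4 μM rGRF(1-29)NH2; 60 min at 23° C, stopped by centrifugation, pellet gamma-counted. hGRF(1-29)NH2 run in each experiment as reference.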

Data set [4] concerns the target T3, GRF receptor (adenylate cyclase activity in rat adenopituitary) (Rattus norvegicus, UniProt Q02644).
T3 construct: from tissue; host or cells: rat anterior pituitary homogenate
T3 sequence (Q02644 23-423 isoform Q02644-2 limits assumed): T1 sequence
The experiment in a line: Adenylate cyclase assay on anterior pituitary homogenates (cAMP by HPLC). It is filed as biochemical. The method, then:
The adenylate cyclase activity Nε-CF-[Lys^31 ]hGRF was performed on anterior pituitary homogenates as previously described (Lefrangois L. and Gaudreau P., J. Chromatogr., 1993, 619:116-120). Briefly, anterior pituitaries (pit.) were dissected out, rinsed and homogenized for 8 sec with a Micro Ultrasonic Cell Disrupter™, in ice-cold 20 mM Tris-HCl buffer (pH 7.5) containing 2 mM MgCl2 and 250 mM sucrose (1 pit./0.5 ml).
Samples of anterior pituitary homogenates (30-40 μg protein) were incubated in 1.5 ml Eppendorf™ tubes with 30 mM Tris-HCl, 5 mM MgCl2, 0.5 mM EGTA, containing 0.5 mM ATP, 1 mM IBMX, 10 μM GTP and an ATP regenerating system consisting of 2 mM creatine phosphate, 0.1 mg/ml creatine kinase and, 0.1 mg/ml myokinase in a final volume of 120 μl. Incubations were initiated by adding 20 μl of the homogenate to the reaction mixture which had previously been equilibrated at 37° C. for 2 min. The reactions were carried out for 8 min at 37° C. and stopped by heating the samples in boiling water for 4 min. Samples were centrifuged (12000 g, 5 min, 4° C.) and supernatants were filtered through 0.45 μm Millex HV4 ™ filters and transferred to autosampler vials for HPLC quantification of cAMP.

Data set [5] can be described thus: Solubility in water or buffer. It is filed as physicochemical. The note with it: distilled water or aqueous buffer.
The nature of data set [6]: Storage stability / shelf life. It is filed as physicochemical.
Data set [7] can be described thus: Toxicity (statement only).
The target of data set [8] is T1, GRF receptor of rat adenopituitary. This is another data set of the same source.
Data set [9] has the same target. The experiment in a line: displacement of 125I-Tyr10 hGRF(1-44)NH2 from rat anterior pituitary homogenate. On the procedure: (§1) The binding of [^125I-Tyr^10]hGRF(1–44)NH_2 was performed on anterior pituitary homogenates as previously described (Gaudreau P. et al., J. Biol. Chem., 1992, 35:1864–1869). Briefly, anterior pituitaries (pit.) were dissected out, rinsed and homogenized for 8 sec with a Micro Ultrasonic Cell Disrupter™, in ice-cold 50 mM Tris-HCl buffer, pH 7.4, containing 5 mM MgCl_2 and 5 mM EDTA (1 pit./0.5 ml). These homogenates were used immediately. Competition studies were performed using 35–50 pM [^125I-Tyr^10]hGRF(1–44)NH_2 as radio-ligand, 50 µl of homogenate (70 to 75 µg of protein), and increasing concentrations of Nε-CF-[Lys^31]hGRF or other GRF analogues (0–1000 nM) or with 2.4 µM rGRF(1–29)NH_2 for determination of non-specific binding, in a total volume of 300 µl of Tris-HCl buffer, pH 7.4, containing 5 mM EDTA, 5 mM MgCl_2 and 0.42% BSA. Incubations were carried out at 23° C. for 60 min and stopped by centrifugation (12,000 g, 5 min, at 4° C.). The radioactivity content in the pellet was measured by gamma counting. The affinity of hGRF(1–29)NH_2 was tested in each experiment to assess the validity of the assay and determine the relative affinity of the analogues.
75 to 97% of their initial concentration are recovered at the end of the binding assay (Gaudreau P. et al., J. Biol. Chem., 1992, 35:1864–1869). The Ligand computerized program was used to analyse competition curves of all the GRF analogues reported in Tables 4, 7 and 11, and to determine their IC$50$ and Hill coefficient. The Hill values indicate that all these peptides bind to the high and low affinity GRF binding sites found in the anterior pituitary.
The source holds these as a separate data set.

For data set [10] the target is unchanged. The data set is described as above. On the procedure: as §1
75 to 97% of their initial concentration are recovered at the end of the binding assay (Gaudreau P. et al., J. Biol. Chem., 1992, 35:1864–1869). […]
This is another data set of the same source.

Like-named read-outs stand apart in the source and are kept apart here. Ends that are not written are not given here. * marks the point of attachment. FITC = O=C1OC2(c3ccc(O)cc3Oc3cc(O)ccc32)c2ccc(NC(=S)*)cc21; X1 = O=C(O)c1cc(C(=O)*)ccc1-c1c2ccc(=O)cc-2oc2cc(O)ccc12

Consider “D-Ala^2,D-Tyr^10,D-Ala^15,D-Lys^21 ! hGRF(1-29)NH2 (from UniProt P01286) (peptide)”, for which the adenylate cyclase activity: Relative activity (%) against hGRF(1-29)NH2 in [1] was 27%. The molecule further came in with a Relative affinity (%) against hGRF(1-29)NH2 in data set [2] of 8%.
Consider “D-Ans^8,D-Leu^22 ! hGRF(1-29)NH2 (from UniProt P01286) (peptide)”, for which the adenylate cyclase activity: Relative activity (%) against hGRF(1-29)NH2 in data set [1] amounted to 55%. This molecule showed a Relative affinity (%) against hGRF(1-29)NH2 in [2] of 49%.
For the molecule “H-YADAIFTNSYRKVLGQLSARKLLQDIMSRQK(X1)GESNQERGARARL-NH2 [Nε-5-carboxyfluoresceinyl-[Lys^31]hGRF(1-44)NH2]”, the “affinity for adenopituitary GRF receptors (in words)” value in [3] is “high affinity”. The molecule further showed a Hill coef. in [3] (Table 4) of 0.55 ± 0.03. Moreover, in data set [3] (Table 4, ratio IC50 of hGRF(1-29)NH2 /IC50 analogue), the Relative affinity was 73 ± 27%. The “agonist character at the GRF receptor” value in [4] is “full GRF receptor agonist”. In addition, the Relative activity in data set [4] (Table 5, ratio EC50 of hGRF(1-29)NH2 /EC50 analogue) was 55 ± 36%. Also, the solubility entry in data set [5] was “freely soluble”. In [6], the shelf life result is listed as “at least one year”. Moreover, the stability entry in [6] (protected from light and maintained at 4° C.) is reported as “stable”. For the same molecule, the toxicity in data set [7] worked out at 100% non-toxic.
Consider “Nε-5-carboxyfluoresceinyl-Lys^31 !hGRF(1-44)NH2 (from UniProt P01286) (peptide)”, for which, in data set [8], the adenylate cyclase activity: EC50 of cAMP accumulation (column head prints IC50) is 67 nM and the adenylate cyclase activity: Relative activity (%) against hGRF(1-29)NH2 was 55%. Also, in [2], the IC50 (as a rule, the concentration at which inhibition is half-maximal) turned out to be 3.65 nM and the Relative affinity (%) against hGRF(1-29)NH2 is 73%.
Regarding “Ala^8,Ala^15,Ala^22 ! hGRF(1-29)NH2 (from UniProt P01286) (peptide)”, the adenylate cyclase activity: Relative activity (%) against hGRF(1-29)NH2 in data set [1] amounted to 1410%. The molecule further came in with a Relative affinity (%) against hGRF(1-29)NH2 in [2] of 960%.
For the molecule {FITC}-YADAIFTNSYRKVLGQLSARKLLQDIMSRQQGESNQERGARARL-NH2 [Nα-fluorescein-5-thiocarbamyl!hGRF(1-44)NH2], the “Relative affinity (%) against hGRF(1-29)NH2” value (“Relative affinity (%)” below) in data set [9] is 19%.
For the molecule {FITC}-YADAIFTNSYRKVLGQLSARKLLQDIMSR-NH2 [Nα-fluorescein-5-thiocarbamyl!hGRF(1-29)NH2], in [9], the IC50 was 14 nM and the “Relative affinity (%)” value was 19%.
On to YADAIFTNSYRKVLGQLSARKLLQDIMSR-NH2 (ligand) [hGRF(1-29)NH2], for which, in data set [8], the adenylate cyclase activity: EC50 of cAMP accumulation (column head prints IC50) was found to be 36.7 nM and the adenylate cyclase activity: Relative activity (%) was determined as 100%. In addition, the “Relative affinity (%)” value in data set [9] was determined as 100%. This molecule also had an IC50 in data set [10] of 2.4 nM.

Source of the values: patent US5854216A, “Marker for growth hormone-releasing factor receptors” (Universite de Montreal, priority 1996, dated 1998).
